# Measurements as given in patent US20180318386A1, “PEPTIDES AND METHODS OF TREATING ENDOMETRIOSIS USING THE SAME” (BIOINCEPT, LLC, priority 2014, published 2018).
# Legend:
# Assay in all cases: PIF affinity resin pull-down, CD14+ cell lysate, LC-MS/MS count
# [1] = biological target: 14-3-3 protein theta (human) (UniProt P27348)
# [2] = biological target: Heat shock protein HSP 90-beta (human) (UniProt P08238)
# Tropomodulin-3 (human) = Tropomodulin-3 (human) (UniProt Q9NYL9)
# [3] = biological target: Isoform 2 of Adenylyl cyclase-associated protein 1 (human) (UniProt Q01518)
# Sequence of Isoform 2 of Adenylyl cyclase-associated protein 1 (human) (Q01518 other isoform, or with tags, fused parts or gaps limits assumed): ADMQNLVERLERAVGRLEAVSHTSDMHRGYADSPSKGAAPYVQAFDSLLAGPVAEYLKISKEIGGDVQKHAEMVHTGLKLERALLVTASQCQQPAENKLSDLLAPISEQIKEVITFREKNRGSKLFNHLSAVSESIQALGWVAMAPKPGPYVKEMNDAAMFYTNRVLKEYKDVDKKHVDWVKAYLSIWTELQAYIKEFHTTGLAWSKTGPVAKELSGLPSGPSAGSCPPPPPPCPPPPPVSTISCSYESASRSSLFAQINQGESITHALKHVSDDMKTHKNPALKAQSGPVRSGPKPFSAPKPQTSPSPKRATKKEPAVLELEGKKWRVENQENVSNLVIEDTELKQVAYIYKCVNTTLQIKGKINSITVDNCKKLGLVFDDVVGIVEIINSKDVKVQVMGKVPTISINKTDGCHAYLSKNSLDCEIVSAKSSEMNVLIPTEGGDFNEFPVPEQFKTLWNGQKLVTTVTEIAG
# [4] = biological target: Protein disulfide-isomerase A4 (human) (UniProt P13667)
# Sequence of Protein disulfide-isomerase A4 (human) (P13667 21-645 limits assumed): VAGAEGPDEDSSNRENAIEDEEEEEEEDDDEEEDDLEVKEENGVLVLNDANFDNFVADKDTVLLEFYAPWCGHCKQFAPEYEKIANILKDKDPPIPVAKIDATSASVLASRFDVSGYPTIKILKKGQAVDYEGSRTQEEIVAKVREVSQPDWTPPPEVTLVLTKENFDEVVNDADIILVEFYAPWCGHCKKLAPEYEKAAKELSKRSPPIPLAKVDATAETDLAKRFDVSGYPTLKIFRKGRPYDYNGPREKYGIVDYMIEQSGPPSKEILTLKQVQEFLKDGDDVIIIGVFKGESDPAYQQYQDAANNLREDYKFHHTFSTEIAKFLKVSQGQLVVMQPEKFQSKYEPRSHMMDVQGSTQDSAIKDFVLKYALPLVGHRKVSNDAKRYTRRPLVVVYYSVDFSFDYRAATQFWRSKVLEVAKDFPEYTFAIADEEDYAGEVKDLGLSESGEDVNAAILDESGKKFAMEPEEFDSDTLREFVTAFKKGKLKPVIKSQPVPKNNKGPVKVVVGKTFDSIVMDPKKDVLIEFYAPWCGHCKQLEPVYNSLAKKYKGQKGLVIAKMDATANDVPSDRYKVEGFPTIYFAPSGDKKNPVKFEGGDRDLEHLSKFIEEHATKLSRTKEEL
# [5] = biological target: 14-3-3 protein gamma (human) (UniProt P61981)
# [6] = biological target: Histone-binding protein RBBP7 (human) (UniProt Q16576)
# Sequence of Histone-binding protein RBBP7 (human) (Q16576 2-425 limits assumed): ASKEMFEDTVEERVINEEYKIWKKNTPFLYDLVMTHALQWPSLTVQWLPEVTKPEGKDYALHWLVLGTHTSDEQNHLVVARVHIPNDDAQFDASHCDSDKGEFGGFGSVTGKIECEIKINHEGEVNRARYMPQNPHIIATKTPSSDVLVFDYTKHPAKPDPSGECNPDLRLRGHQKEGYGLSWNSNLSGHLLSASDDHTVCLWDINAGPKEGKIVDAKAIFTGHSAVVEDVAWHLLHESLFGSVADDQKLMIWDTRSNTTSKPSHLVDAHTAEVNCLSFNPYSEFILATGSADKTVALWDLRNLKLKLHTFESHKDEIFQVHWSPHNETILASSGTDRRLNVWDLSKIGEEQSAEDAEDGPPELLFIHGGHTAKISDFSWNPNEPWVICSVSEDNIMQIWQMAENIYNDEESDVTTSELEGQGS
# [7] = biological target: Protein disulfide-isomerase (human) (UniProt P07237)
# Sequence of Protein disulfide-isomerase (human) (P07237 18-508 limits assumed): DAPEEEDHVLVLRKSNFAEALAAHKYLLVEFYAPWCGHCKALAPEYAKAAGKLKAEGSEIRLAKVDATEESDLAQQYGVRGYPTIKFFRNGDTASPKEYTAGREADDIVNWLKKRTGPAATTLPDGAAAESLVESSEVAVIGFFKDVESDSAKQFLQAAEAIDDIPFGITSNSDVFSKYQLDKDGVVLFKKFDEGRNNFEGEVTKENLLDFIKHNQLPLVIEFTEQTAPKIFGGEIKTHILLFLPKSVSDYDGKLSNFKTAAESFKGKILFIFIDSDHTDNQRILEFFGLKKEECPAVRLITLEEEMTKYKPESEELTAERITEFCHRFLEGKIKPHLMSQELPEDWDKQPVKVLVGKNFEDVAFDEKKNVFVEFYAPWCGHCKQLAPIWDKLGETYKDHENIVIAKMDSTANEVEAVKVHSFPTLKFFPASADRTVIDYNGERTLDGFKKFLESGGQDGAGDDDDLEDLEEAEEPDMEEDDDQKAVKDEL
# Plastin-2 (human) = Plastin-2 (human) (UniProt P13796)
# Sequence of Plastin-2 (human) (P13796 2-627 limits assumed): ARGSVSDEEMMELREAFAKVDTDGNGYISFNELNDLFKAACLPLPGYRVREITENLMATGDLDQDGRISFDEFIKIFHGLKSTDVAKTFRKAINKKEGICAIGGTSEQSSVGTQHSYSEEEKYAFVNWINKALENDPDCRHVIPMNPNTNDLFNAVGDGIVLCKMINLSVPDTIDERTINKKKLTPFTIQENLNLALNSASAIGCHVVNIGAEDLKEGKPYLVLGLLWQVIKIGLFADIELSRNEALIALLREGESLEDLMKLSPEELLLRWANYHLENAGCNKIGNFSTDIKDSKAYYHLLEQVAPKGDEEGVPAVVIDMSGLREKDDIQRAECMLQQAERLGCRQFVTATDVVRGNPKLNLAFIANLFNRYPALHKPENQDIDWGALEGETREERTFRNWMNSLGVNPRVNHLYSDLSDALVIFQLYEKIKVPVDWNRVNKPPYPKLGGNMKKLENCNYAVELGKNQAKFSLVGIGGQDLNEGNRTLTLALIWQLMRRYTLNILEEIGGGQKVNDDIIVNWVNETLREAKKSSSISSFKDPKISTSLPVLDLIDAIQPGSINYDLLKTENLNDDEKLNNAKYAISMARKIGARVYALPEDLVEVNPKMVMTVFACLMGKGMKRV
# [8] = biological target: Transitional endoplasmic reticulum ATPase (human) (UniProt P55072)
# [9] = biological target: Tubulin alpha-4A chain (human) (UniProt P68366)
# [10] = biological target: 78 kDa glucose-regulated protein (human) (UniProt P11021)
# [11] = biological target: Isoform 2 of Heat shock protein HSP 90-alpha (human) (UniProt P07900)
# Annexin A1 (human) = Annexin A1 (human) (UniProt P04083)
# [12] = biological target: Centrosomal protein of 120 kDa (Fragment) (human) (UniProt Q8N960)
# [13] = biological target: Tropomyosin alpha-3 chain (human) (UniProt P06753)
# Sequence of Tropomyosin alpha-3 chain (human) (P06753 2-285 limits assumed): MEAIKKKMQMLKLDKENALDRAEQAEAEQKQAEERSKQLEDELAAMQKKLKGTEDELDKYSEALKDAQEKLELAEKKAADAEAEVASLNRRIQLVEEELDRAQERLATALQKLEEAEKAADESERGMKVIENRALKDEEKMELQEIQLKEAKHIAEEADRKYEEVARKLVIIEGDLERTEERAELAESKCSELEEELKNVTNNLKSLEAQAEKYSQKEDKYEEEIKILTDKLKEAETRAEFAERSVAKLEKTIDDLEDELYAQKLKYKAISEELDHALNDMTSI
# Talin-1 (human) = Talin-1 (human) (UniProt Q9Y490)
# [14] = biological target: Nuclear autoantigenic sperm protein (human) (UniProt P49321)
# [15] = biological target: Bridging integrator 2 (human) (UniProt Q9UBW5)
# [16] = biological target: 14-3-3 protein eta (human) (UniProt Q04917)
# Sequence of 14-3-3 protein eta (human) (Q04917 2-246 limits assumed): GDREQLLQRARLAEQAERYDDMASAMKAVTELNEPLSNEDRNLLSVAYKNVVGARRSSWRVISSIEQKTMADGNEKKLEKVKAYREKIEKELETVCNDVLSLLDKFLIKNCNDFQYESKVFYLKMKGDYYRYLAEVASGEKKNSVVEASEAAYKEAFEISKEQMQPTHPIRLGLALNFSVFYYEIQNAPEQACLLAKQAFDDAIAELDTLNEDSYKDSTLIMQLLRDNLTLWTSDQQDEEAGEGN
# Filamin-A (human) = Filamin-A (human) (UniProt P21333)
# Coronin-1A (human) = Coronin-1A (human) (UniProt P31146)
# Sequence of Coronin-1A (human) (P31146 2-461 limits assumed): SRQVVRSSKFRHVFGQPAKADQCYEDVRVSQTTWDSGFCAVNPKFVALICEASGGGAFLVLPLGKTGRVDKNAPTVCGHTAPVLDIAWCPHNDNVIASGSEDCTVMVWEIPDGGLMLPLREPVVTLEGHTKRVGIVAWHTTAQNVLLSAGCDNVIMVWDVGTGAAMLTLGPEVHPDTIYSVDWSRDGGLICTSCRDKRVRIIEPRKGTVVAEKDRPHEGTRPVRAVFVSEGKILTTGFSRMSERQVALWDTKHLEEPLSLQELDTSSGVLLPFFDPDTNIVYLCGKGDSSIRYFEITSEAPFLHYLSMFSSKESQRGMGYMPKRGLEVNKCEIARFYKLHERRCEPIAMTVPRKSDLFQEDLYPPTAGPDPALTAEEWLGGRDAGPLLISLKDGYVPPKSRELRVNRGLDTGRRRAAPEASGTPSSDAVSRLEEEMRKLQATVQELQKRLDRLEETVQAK
# Histone H4 (human) = Histone H4 (human) (UniProt P62805)
# [17] = biological target: Actinin alpha 1 isoform 3 (human) (UniProt P12814)
# Sequence of Actinin alpha 1 isoform 3 (human) (P12814 other isoform, or with tags, fused parts or gaps): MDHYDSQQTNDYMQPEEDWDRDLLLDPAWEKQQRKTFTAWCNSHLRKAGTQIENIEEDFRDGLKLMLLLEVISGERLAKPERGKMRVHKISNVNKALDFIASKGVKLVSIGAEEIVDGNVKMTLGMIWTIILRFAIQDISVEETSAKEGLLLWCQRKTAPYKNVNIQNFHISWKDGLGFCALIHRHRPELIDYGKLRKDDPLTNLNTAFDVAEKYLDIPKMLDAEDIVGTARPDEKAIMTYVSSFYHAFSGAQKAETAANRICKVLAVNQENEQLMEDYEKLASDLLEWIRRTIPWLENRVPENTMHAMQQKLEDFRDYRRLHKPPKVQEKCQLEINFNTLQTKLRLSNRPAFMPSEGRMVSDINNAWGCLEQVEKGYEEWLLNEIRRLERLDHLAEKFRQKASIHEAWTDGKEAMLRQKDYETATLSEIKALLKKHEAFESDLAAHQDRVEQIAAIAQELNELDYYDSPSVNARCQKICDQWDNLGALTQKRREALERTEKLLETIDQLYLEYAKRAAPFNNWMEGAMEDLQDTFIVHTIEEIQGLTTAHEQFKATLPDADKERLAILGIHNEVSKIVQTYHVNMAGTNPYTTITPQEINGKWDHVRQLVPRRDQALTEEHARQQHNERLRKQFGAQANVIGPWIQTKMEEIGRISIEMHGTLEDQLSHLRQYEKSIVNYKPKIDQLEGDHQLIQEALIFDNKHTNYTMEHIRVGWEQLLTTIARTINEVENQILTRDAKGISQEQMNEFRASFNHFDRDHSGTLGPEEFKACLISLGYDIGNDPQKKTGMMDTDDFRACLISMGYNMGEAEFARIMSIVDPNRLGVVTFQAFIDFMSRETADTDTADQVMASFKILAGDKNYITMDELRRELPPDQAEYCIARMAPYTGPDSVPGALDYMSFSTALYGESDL
# Sequence of Tropomodulin-3 (human) (Q9NYL9 whole entry, canonical isoform): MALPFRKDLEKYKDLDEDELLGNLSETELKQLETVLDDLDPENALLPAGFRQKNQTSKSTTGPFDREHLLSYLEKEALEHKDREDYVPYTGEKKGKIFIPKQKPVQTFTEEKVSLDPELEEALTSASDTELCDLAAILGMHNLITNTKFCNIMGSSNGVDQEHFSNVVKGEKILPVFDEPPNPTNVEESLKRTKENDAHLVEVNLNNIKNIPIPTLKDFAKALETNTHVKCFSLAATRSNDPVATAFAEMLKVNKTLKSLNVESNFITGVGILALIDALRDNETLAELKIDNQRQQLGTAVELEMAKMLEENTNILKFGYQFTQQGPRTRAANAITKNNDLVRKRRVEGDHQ
substance,measurement,setting,value
PIF15 affinity resin (Cys-C6 spacer-PIF15 conjugated to agarose) (peptide),Ave,[1],1
same,Inject 1,[1],1
same,Inject 2,[1],1
same,Inject 3,[1],2
same,Ave,[2],1
same,Inject 1,[2],2
same,Inject 2,[2],1
same,Inject 3,[2],1
same,Ave,Tropomodulin-3 (human),1
same,Inject 1,Tropomodulin-3 (human),1
same,Inject 2,Tropomodulin-3 (human),2
same,Inject 3,Tropomodulin-3 (human),1
same,Ave,[3],3
same,Inject 1,[3],4
same,Inject 2,[3],3
same,Inject 3,[3],2
same,Ave,[4],2
same,Inject 1,[4],4
same,Inject 2,[4],1
same,Inject 3,[4],2
same,Ave,[5],3
same,Inject 1,[5],3
same,Inject 2,[5],3
same,Inject 3,[5],3
same,Ave,[6],1
same,Inject 1,[6],2
same,Inject 2,[6],0
same,Inject 3,[6],1
same,Ave,[7],2
same,Inject 1,[7],3
same,Inject 2,[7],2
same,Inject 3,[7],2
same,Ave,Plastin-2 (human),1
same,Inject 1,Plastin-2 (human),1
same,Inject 2,Plastin-2 (human),1
same,Inject 3,Plastin-2 (human),2
same,Ave,[8],3
same,Inject 1,[8],3
same,Inject 2,[8],2
same,Inject 3,[8],3
same,Ave,[9],2
same,Inject 1,[9],2
same,Inject 2,[9],3
same,Inject 3,[9],1
same,Ave,[10],4
same,Inject 1,[10],6
same,Inject 2,[10],3
same,Inject 3,[10],3
same,Ave,[11],1
same,Inject 1,[11],1
same,Inject 2,[11],2
same,Inject 3,[11],1
same,Ave,Annexin A1 (human),1
same,Inject 1,Annexin A1 (human),0
same,Inject 2,Annexin A1 (human),0
same,Inject 3,Annexin A1 (human),2
same,Ave,[12],1
same,Inject 1,[12],2
same,Inject 2,[12],0
same,Inject 3,[12],0
same,Ave,[13],4
same,Inject 1,[13],4
same,Inject 2,[13],2
same,Inject 3,[13],5
same,Ave,Talin-1 (human),6
same,Inject 1,Talin-1 (human),5
same,Inject 2,Talin-1 (human),6
same,Inject 3,Talin-1 (human),8
same,Ave,[14],1
same,Inject 1,[14],2
same,Inject 2,[14],0
same,Inject 3,[14],1
same,Ave,[15],1
same,Inject 1,[15],1
same,Inject 2,[15],2
same,Inject 3,[15],0
same,Ave,[16],1
same,Inject 1,[16],1
same,Inject 2,[16],1
same,Inject 3,[16],2
same,Ave,Filamin-A (human),5
same,Inject 1,Filamin-A (human),5
same,Inject 2,Filamin-A (human),3
same,Inject 3,Filamin-A (human),7
same,Ave,Coronin-1A (human),2
same,Inject 1,Coronin-1A (human),2
same,Inject 2,Coronin-1A (human),2
same,Inject 3,Coronin-1A (human),1
same,Ave,Histone H4 (human),2
same,Inject 1,Histone H4 (human),3
same,Inject 2,Histone H4 (human),0
same,Inject 3,Histone H4 (human),2
same,Ave,[17],4
same,Inject 1,[17],5
same,Inject 2,[17],4
same,Inject 3,[17],3
